This series can be described thus: protein stability index of a GFP-peptide fusion (GPS, HEK-293T) (PSI 1-6); higher = more stable.
[1] abbreviates: treatment: DMSO, c terminus: a fixed tail appended.
[2] abbreviates: treatment: MLN4924 1 uM, 8 h, c terminus: a fixed tail appended.

± gives the standard deviation.
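Also: 24-mer peptide tiles fused after GFP, lentivirally expressed, FACS-sorted into six equal bins by GFP/DsRed ratio, decoded by Illumina sequencing, PSI is the read-weighted mean bin number.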

For AAAALFGGKKDKARYIDTHNRVSK [PLK2], the protein stability index by setting is: under setting [1], 3.37 ± 0.22; under setting [2], 3.14 ± 0.39.
Consider AACLLQLDGLIQQCGETMKETVNV [GMCL1], for which the protein stability index under setting [1] turned out to be 3.14 ± 0.24 and the protein stability index under setting [2] is 3.07 ± 0.25.
Regarding AAFPNLANLSRTQLLHLGLTQGLI [KLHDC10], the protein stability index is, setting by setting: under setting [1], 2.58 ± 0.3; under setting [2], 2.27 ± 0.2.
In the same order, the values of AAGSPRSPGPLPGARGLHLPDAGS [ISL2] are 4.6 ± 0.35 and 4.72 ± 0.16.
As for AAHAVVLCALPVHVAVEHQLPPAS [SOAT2], the protein stability index was 2.16 ± 0.32 under setting [1] and 2.52 ± 0.39 under setting [2].
In the same order, the values of AALNAHSDCCRKLLSSGFEIDTPD [ANKRD44] are 3.61 ± 0.24 and 3.59 ± 0.42.
In the case of AAMLRGQSDVGVAVFENKIYVVGG [KLHL13], the protein stability index turned out to be 2.07 ± 0.12 under setting [1] and 2.46 ± 0.55 under setting [2].
The corresponding values for AARALDKNKIPYKGFIPEDLEAFI [FEM1A] are 2.96 ± 0.29 and 3.42 ± 0.41.
Take AATLLLALLSCCLTVVSFYQVAAL [TNFSF13B]: the protein stability index by setting is: under setting [1], 3.24 ± 0.23; under setting [2], 3.31 ± 0.32.
The corresponding values for AAWGARVFSFGKHYWELDVDNSCD [TRIM43] are 2.25 ± 0.44 and 2.28 ± 0.3.
The corresponding values for ACDSKLTFDAITTIRGEVMFFKDR [MMP1] are 2.45 ± 0.24 and 2.83 ± 0.19.
With ACGGGHLLPYFYIIYMAILLTHRC [DHCR7], the protein stability index was 2.8 ± 0.18 under setting [1] and 3.07 ± 0.19 under setting [2].
Take ACGIVSGKYDSGIPPYSRASLKGY [KCNAB2]: the protein stability index is, setting by setting: under setting [1], 2.35 ± 0.21; under setting [2], 2.2 ± 0.12.
Consider ACGSSSYVASIVDGGESRSEKGDS [RBMY1A1], for which the protein stability index is, setting by setting: under setting [1], 5.22 ± 0.31; under setting [2], 5.16 ± 0.35.
For the sequence ACIVVLDRTSHRLHTANLGDSGFL [PPTC7], the protein stability index stood at 2.68 ± 0.48 under setting [1] and 2.24 ± 0.43 under setting [2].
Consider ADLENEDIFPELDDILYHVKGMQR [DLC1], for which the protein stability index is 3.7 ± 0.13 under setting [1] and 3.72 ± 0.34 under setting [2].
In the same order, the values of AEHMKRQRHPRLRPQSAQSSFPPS [AUP1] are 4.13 ± 0.12 and 4.43 ± 0.25.
For the sequence AEHQFSFMEKRNQWLVSQLSAASP [TRAF3IP2], the protein stability index came to 3.02 ± 0.39 under setting [1] and 3.23 ± 0.37 under setting [2].
With AEKETELSLQKEQLQLKIIEIEDE [TRIM29], the protein stability index is, setting by setting: under setting [1], 5.42 ± 0.26; under setting [2], 5.45 ± 0.26.
In the same order, the values of AFAEMLRFGDRMFYKDWWNSTSYS [SOAT1] are 2.52 ± 0.36 and 2.58 ± 0.54.
Take AFEPEALGNLVEGLDFHRFYFENL [CAMK2A]: the protein stability index under setting [1] is 2.51 ± 0.18 and the protein stability index under setting [2] was found to be 2.61 ± 0.3.
The corresponding values for AFWSLVTLGSSFIPGEHFWLLLLT [SPNS1] are 2.85 ± 1.5 and 2.91 ± 1.1.
The corresponding values for AGADLKERAKMSSSEVGPFVSKIR [AUH] are 3.21 ± 0.21 and 4.069 ± 0.006.
The corresponding values for AGGDATENFEDVGHSTDAREMSKT [CYB5A] are 5.44 ± 0.28 and 5.3 ± 0.15.
AGIREAKAKQEKVSAQYLSEIEMA [FLOT1]: the protein stability index was 4.63 ± 0.33 under setting [1] and 4.75 ± 0.14 under setting [2].
Take AGLAPPSLFARAMQVLVTAISPGR [ANKRD9]: the protein stability index is, setting by setting: under setting [1], 2.29 ± 0.1; under setting [2], 2.29 ± 0.18.
The sequence AGPDSWGSDAEQSTSGQPYPTSDQ [LCOR] displayed a protein stability index under setting [1] of 5.48 ± 0.23 and a protein stability index under setting [2] of 5.4 ± 0.13.
As to AIIRTPPKSPATPKQLRLINQPLP [MAP2], the protein stability index worked out at 3.13 ± 0.19 under setting [1] and 3.15 ± 0.21 under setting [2].
Consider AINNLVLQGCSSIGLRLVLEYLYT [KLHL14], for which the protein stability index is, setting by setting: under setting [1], 3.15 ± 0.55; under setting [2], 3.04 ± 0.31.
In the same order, the values of AKAELPKYKSFNRTAMPYGGYEKA [MYOZ1] are 3.22 ± 0.23 and 3.41 ± 0.24.
Regarding AKEKLESFIKNSDSFDKFEFCEPA [PCMTD1], the protein stability index reads like this: under setting [1], 4.06 ± 0.27; under setting [2], 3.96 ± 0.31.
Consider AKLAADDFRTKYETELSLRQLVEA [KRT36], for which the protein stability index stood at 3.73 ± 0.33 under setting [1] and 3.78 ± 0.061 under setting [2].
For AKRCTVIGGSGFLGQHMVEQLLAR [NSDHL], the protein stability index was 2.1 ± 0.2 under setting [1] and 2.21 ± 0.41 under setting [2].
The corresponding values for ALDLAREFLPQGPVAMRVAKLAIN [AUH] are 2.89 ± 0.18 and 2.83 ± 0.25.
In the same order, the values of ALERRRRALQEEERAAAQARRELQ [ZBED3] are 5.18 ± 0.12 and 4.86 ± 0.19.
In the same order, the values of ALLEGEKALWEDKTSLWEEENALW [CCDC70] are 3.41 ± 0.27 and 3.73 ± 0.33.
Turning to ALSDAEFEGEGDYEEGMYADWWQE [P3H4], the protein stability index runs as follows: under setting [1], 4.97 ± 0.23; under setting [2], 5.15 ± 0.17.
The corresponding values for ALTGPVVDIVTGHARLSDIWAKTP [DHCR7] are 2.63 ± 0.21 and 2.71 ± 0.17.
For the sequence AMKITQEPQGLGYWEAWRHHCQGK [SPACA3], the protein stability index was 3.05 ± 0.18 under setting [1] and 3.17 ± 0.29 under setting [2].
For the sequence APGYDPETVTVTVGPAEPTLVNFH [CPN1], the protein stability index was 3.89 ± 0.32 under setting [1] and 3.99 ± 0.35 under setting [2].
For the sequence APLIQPCHSESGKSRLVQLPPVAV [PCMTD2], the protein stability index is, setting by setting: under setting [1], 3.13 ± 0.21; under setting [2], 3.29 ± 0.38.
In the same order, the values of APPQGSCGDELPWTLQRRLTRLRT [PLEKHN1] are 3.33 ± 0.26 and 3.51 ± 0.44.
On to APPSTRTSHSLPESSVPSTVGCSS [PLEKHN1], for which the protein stability index is 4.94 ± 0.45 under setting [1] and 5.23 ± 0.18 under setting [2].
For the sequence AQLRLQLEVSQLEGSLQQPKAQSA [SMG5], the protein stability index is, setting by setting: under setting [1], 3.66 ± 0.24; under setting [2], 3.7 ± 0.28.
As for AQQLEEEGPMEEEEAQPMAAPEGK [EID1], the protein stability index under setting [1] worked out at 5.68 ± 0.29 and the protein stability index under setting [2] came to 5.53 ± 0.35.
The corresponding values for AQVDGAAMFAADPKKPIGGNIIAH [RAD51] are 4.23 ± 0.18 and 4.36 ± 0.17.
ARVKPPEGYDVVAVYPNAKVELV [PDLIM4] gave a protein stability index (treatment: DMSO, c terminus: native) of 3.52 ± 0.35 and a protein stability index (treatment: MLN4924 1 uM, 8 h, c terminus: native) of 3.65 ± 0.22.
Regarding ARYYLVQGLIEDCQLALQQKRETL [KCTD13], the protein stability index came to 2.11 ± 0.19 under setting [1] and 2.19 ± 0.24 under setting [2].
For the sequence ASDLSSEEGWRLFKIDKEYLLKMA [SAT1], the protein stability index under setting [1] amounted to 2.42 ± 0.17 and the protein stability index under setting [2] stood at 2.6 ± 0.33.
With ASEAFHWDERGRAAAYSPSEALLY [ANKRD9], the protein stability index runs as follows: under setting [1], 3.37 ± 0.21; under setting [2], 3.4 ± 0.4.
In the same order, the values of ASLGLTQTQVKIWFQNKRSKFKKL [DLX1] are 2.37 ± 0.19 and 2.61 ± 0.47.
As for ASSLPAEVHSLTLSPPEQAAQPMQ [PLAGL1], the protein stability index by setting is: under setting [1], 5.07 ± 0.12; under setting [2], 4.89 ± 0.26.
As to ATECEFVGSLPVIVVGRLKVALEP [LPCAT4], the protein stability index was determined as 2.36 ± 0.56 under setting [1] and 2.36 ± 0.59 under setting [2].
Sequence ATETQALAQRTQQDSTRTVGERLQ [TEKT4] returned a protein stability index under setting [1] of 5.14 ± 0.43 and a protein stability index under setting [2] of 5.43 ± 0.15.
Sequence ATKPSHWCSVAYWEHRTRVGRLYA [SMAD6] came in with a protein stability index under setting [1] of 2.62 ± 0.55 and a protein stability index under setting [2] of 1.91 ± 0.17.
In the case of ATVPSNMMSVNGQAKTHTDSSEKE [ACBD3], the protein stability index reads like this: under setting [1], 5.35 ± 0.23; under setting [2], 5.45 ± 0.19.
Consider AVETRLSLLNMTFMKYVDSNLCCF [FBXO28], for which the protein stability index stood at 2.99 ± 1.8 under setting [1] and 2.57 ± 1.3 under setting [2].
On to AVGDRQDGLREQLQAPVPPDSVPS [PBXIP1], for which the protein stability index is, setting by setting: under setting [1], 5.33 ± 0.37; under setting [2], 5.37 ± 0.18.
The corresponding values for AVLDCLLDFLPKDVKKEKLSPDIM [TENT5D] are 2.99 ± 0.65 and 2.63 ± 0.52.
As for CASKYGRDWERYTAAVPYRLLPGI [DHCR7], the protein stability index is, setting by setting: under setting [1], 2.05 ± 0.24; under setting [2], 2.2 ± 0.21.
For CEALINRVSAMRDYRGPDCRYLNF [MIA2], the protein stability index is, setting by setting: under setting [1], 2.3 ± 0.33; under setting [2], 2.53 ± 0.14.
Regarding CESCVDLLFVRGAGNCPECGTPLR [MNAT1], the protein stability index reads like this: under setting [1], 4.27 ± 0.32; under setting [2], 4.51 ± 0.17.
In the same order, the values of CESLTYGLPFILRPTSCWQLDWDE [M1AP] are 2.25 ± 0.15 and 2.04 ± 0.3.
Consider CEVWACNLDEEMKKIRQVIRKYNY [CNOT7], for which the protein stability index runs as follows: under setting [1], 2.28 ± 0.19; under setting [2], 2.23 ± 0.14.
Turning to CFVKDNPQKSYFIRLYGLQAGRLL [WAS], the protein stability index under setting [1] amounted to 2.49 ± 0.58 and the protein stability index under setting [2] was 2.22 ± 0.45.
CGFTVAQIITSLVFHLPFYSSNQL [OR10K2]: the protein stability index is, setting by setting: under setting [1], 3.15 ± 0.51; under setting [2], 2.95 ± 0.41.
As for CGGYNGEVILGDIWKLNLQTFQWV [KLHDC10], the protein stability index was 2.44 ± 0.85 under setting [1] and 2.11 ± 0.71 under setting [2].
Take CNDGRIVIWDFLTRGIAKIISAHI [RBBP5]: the protein stability index runs as follows: under setting [1], 3.03 ± 0.42; under setting [2], 2.66 ± 0.41.
As to CPCCFGRDCLVLNQGYLSEAGASL [PI4K2A], the protein stability index is, setting by setting: under setting [1], 2.44 ± 0.2; under setting [2], 2.62 ± 0.49.
On to CQDQNVPVENFFVKCNGALINTSD [SDE2], for which the protein stability index came to 3.3 ± 0.23 under setting [1] and 3.27 ± 0.47 under setting [2].
For the sequence CQFRPPVRVNDGGGSHPSRPNSRH [VDR], the protein stability index turned out to be 4.55 ± 0.34 under setting [1] and 4.77 ± 0.076 under setting [2].
Regarding CQGQPQGKAVVSHSKGHKSSRQEK [ELOA2], the protein stability index is, setting by setting: under setting [1], 5.38 ± 0.22; under setting [2], 5.37 ± 0.1.

These data come from the supplement of paper PMC10567573.
